Experimental data taken from patent US20120258108A1 (AbbVie / Abbott, published 2012).

Tests used:
[1] = molecular target: T1, Recombinant Human TNFα/TNFSF1A (human, UniProt P01375 77-233); experiment: cell-based or functional assay
[2] = molecular target: T1, Recombinant Human TNFα/TNFSF1A; experiment: SPR (BIACORE)
Experimental: The BIACORE assay (Biacore, Inc, Piscataway, N.J.) determines the affinity of antibodies or DVD-Ig with kinetic measurements of on-rate and off-rate constants. Binding of antibodies or DVD-Ig to a target antigen (for example, a purified recombinant target antigen) was determined by surface plasmon resonance-based measurements with a Biacore® 1000 or 3000 instrument (Biacore® AB, Uppsala, Sweden) using running HBS-EP (10 mM HEPES [pH 7.4], 150 mM NaCl, 3 mM EDTA, and 0.005% surfactant P20) at 25° C. All chemicals were obtained from Biacore® AB (Uppsala, Sweden) or otherwise from a different source as described in the text. For example, approximately 5000 RU of goat anti-mouse IgG, (Fcγ), fragment specific polyclonal antibody (Pierce Biotechnology Inc, Rockford, Ill.) diluted in 10 mM sodium acetate (pH 4.5) is directly immobilized across a CM5 research grade biosensor chip using a standard amine coupling kit according to manufacturer's instructions and procedures at 25 μg/ml. Unreacted moieties on the biosensor surface are blocked with ethanolamine. Modified carboxymethyl dextran surface in flowcell 2 and 4 is used as a reaction surface. Unmodified carboxymethyl dextran without goat anti-mouse IgG in flow cell 1 and 3 is used as the reference surface. For kinetic analysis, rate equations derived from the 1:1 Langmuir binding model are fitted simultaneously to association and dissociation phases of all eight injections (using global fit analysis) with the use of Biaevaluation 4.0.1 software. Purified antibodies or DVD-Ig are diluted in HEPES-buffered saline for capture across goat anti-mouse IgG specific reaction surfaces. Antibodies or DVD-Ig to be captured as a ligand (25 μg/ml) are injected over reaction matrices at a flow rate of 5 μl/min. The association and dissociation rate constants, kₒₙ (M⁻¹ s⁻¹) and koff (s⁻¹) are determined under a continuous flow rate of 25 μl/min. Rate constants are derived by making kinetic binding measurements at different antigen concentrations ranging from 10-200 nM. The equilibrium dissociation constant (M) of the reaction between antibodies or DVD-Igs and the target antigen is then calculated from the kinetic rate constants by the following formula: KD=koff/kₒₙ. Binding is recorded as a function of time and kinetic rate constants are calculated.

T1 sequence (P01375 77-233 limits assumed): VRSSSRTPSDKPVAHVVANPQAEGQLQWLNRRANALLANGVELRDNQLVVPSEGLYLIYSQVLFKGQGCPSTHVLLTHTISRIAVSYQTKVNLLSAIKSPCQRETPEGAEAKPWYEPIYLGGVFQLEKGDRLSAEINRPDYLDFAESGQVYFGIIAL

Binder | TNFα Neutralization Assay EC50 nM (L929 cells) [1] [nM] | Kd [2] [nM] | koff [2] [s⁻¹] | kon [2] [M⁻¹ s⁻¹] | C-terminal VD TNFα Neutralization Assay EC50 nM (L929 cells) [1] [nM]
AB281 (antibody, human IgG1, kappa, V domains shown, CDR-grafted parent antibody; also called TNF (AB057)) VH: EVTLRESGPALVKPTQTLTLTCTASGFTFDDYAMHWVRQPPGKGLEWVSAITWNSGHIDYADSVEGRFTISRDNSKNQLVLTMTNMDPVDTATYYCAKVSYLSTASSLDYWGQGTTVTVSS VL: DIVMTQSPDSLAVSLGERATINCRASQGIRNYLAWYQQKPGQAPKLLIYAASTLQSGVPDRFSGSGSGTDFTLTISSLQAEDVAVYYCQRYNRAPYTFGGGTKVEIKR | 0.104 | 0.088 | 0.0001 | 1.2e+06 | –
DVD1727 (bispecific antibody, human IgG1, kappa, DVD-Ig; also called PGE2 (AB017) / TNF (AB023) DVD-Ig) heavy: not shown light: DVQMTQSPSSLSASVGDRVTITCTSSQNIVHSNGNTYLEWYQQKPGKSPKLLIYKVSNRFSGVPSRFSGSGSGTDFTLTISSLQPEDVATYYCFQVSHVPYTFGQGTKVEIKRTVAAPDIRMTQSPASLSASLGETVNIECRASQGIRNYLAWYQQKPGKAPQLLIYAASTLQSGVPSRFSGSGSGTQFSLKINSLQSEDVATYYCQRYNRAPYTFGGGTKLELKRTVAAPSVFIFPPSDEQLKSGTASVVCLLNNFYPREAKVQWKVDNALQSGNSQESVTEQDSKDSTYSLSSTLTLSKADYEKHKVYACEVTHQGLSSPVTKSFNRGEC | – | 5.4 | 0.00012 | 22000 | 1.17

More lines, now with the values ahead:

TNFα Neutralization Assay EC50 nM (L929 cells) [1] [nM] | Kd [2] [nM] | koff [2] [s⁻¹] | kon [2] [M⁻¹ s⁻¹] | C-terminal VD TNFα Neutralization Assay EC50 nM (L929 cells) [1] [nM] | Binder
0.053 | 0.064 | 7.9e-05 | 1.2e+06 | – | AB314 (antibody, human IgG1, kappa, V domains shown, CDR-grafted parent antibody; also called TNF (AB023)) VH: EVQLVESGGGLVQPANSLKLSCAASGFTFDDYAMHWVRQSPKKGLEWVSAITWNSGHIDYADSVEGRFTISRDNAKNTLYLQMDSLRSEDTATYYCAKVSYLSTASSLDYWGQGVLVTVSS VL: DIRMTQSPASLSASLGETVNIECRASQGIRNYLAWYQQKPGKAPQLLIYAASTLQSGVPSRFSGSGSGTQFSLKINSLQSEDVATYYCQRYNRAPYTFGGGTKLELKR
0.228 | 0.13 | 0.00015 | 1.2e+06 | – | AB284 (antibody, human IgG1, kappa, V domains shown, CDR-grafted parent antibody; also called TNF (AB058)) VH: EVQLVQSGTEVKKPGESLKISCKASGFTFDDYAMHWVRQMPGKGLEWVSAITWNSGHIDYADSVEGQFTISRDNSFNTLFLQWSSLKASDTAMYYCAKVSYLSTASSLDYWGQGTMVTVSS VL: EIVMTQSPATLSVSPGERATLSCRASQGIRNYLAWYQQKPGQAPRLLIYAASTLQSDVPARFSGSGSGTEFTLTISSLQSEDFAVYYCQRYNRAPYTFGQGTRLEIKR
